Assay results taken from US7485618B2, “FGF-5 supported and binding peptides” (Genencor International, Inc., priority 2003, dated 2009).

Biological target: T1, FGF-5 (Homo sapiens, UniProt P12034)
T1 construct: host or cells: FGF-5 added exogenously to NR6R-3T3 murine fibroblasts
T1 sequence (P12034 21-268): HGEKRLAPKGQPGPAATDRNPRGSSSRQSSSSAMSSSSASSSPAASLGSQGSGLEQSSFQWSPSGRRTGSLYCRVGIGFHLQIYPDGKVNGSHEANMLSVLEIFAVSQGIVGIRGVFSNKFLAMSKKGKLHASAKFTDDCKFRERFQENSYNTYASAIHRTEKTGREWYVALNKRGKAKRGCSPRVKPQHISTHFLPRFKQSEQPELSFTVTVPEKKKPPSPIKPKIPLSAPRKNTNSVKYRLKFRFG
Experiment: BLA binding assay on FGF-5 coated plates, nitrocefin readout
Conditions: purified peptide-BLA fusions at 0.1 nM, bound to FGF-5
Description: This Example describes secondary screening methods used to analyze FGF-5 binding npeptides. Individual clones were picked and grown up in 5 ml LB+5 ppm CMP overnight at 37° C. The cell pastes were then treated with 125μ of B-PER reagent (Pierce) for 30 min with slow mixing. COSTAR plates (96-well) were coated with 0.1 μg (100 μl of 1 μg/ml) FGF-5, carrier-free (R&D Systems #237-F5/CF, Lot #GQ18304A) with gentle rocking at 4° C. overnight, followed by blocking with Superblock blocking buffer (Pierce) for several hours at room temperature. Then, 100 μl B-Per treated supernatant from individual clones from pGV02-L were added to the FGF-5 coated plates. After one hour, plates were washed six times with PBS, 0.05% TWEEN®-20 and 200 μl of nitrocefin assay buffer containing 0.1 mg/ml nitrocefin (Oxoid) was added to measure residual bound beta-lactamase activity, using Abs490/min. Control wells contained pCB04 (See, FIG. 1C) beta-lactamase as a control. […]
Cell pastes were harvested from the 200 ml cell cultures described in Example 6, by centrifugation at 3,000×g for 10 min. […] BLA activity of all liquid fractions was assayed using nitrocefin, and the concentration of fusion proteins in each fraction was calculated assuming the same specific activity as the WT enzyme. […]

B1: WT (wild-type): Wild-type BLA (E. cloaceae beta-lactamase) without peptide, control for binding of the fusions (protein)
chain: TPVSEKQLAEVVANTITPLMKAQSVPGMAVAVIYQGKPHYYTFGKADIAANKPVTPQTLFELGSISKTFTGVLGGDAIARGEISLDDAVTRYWPQLTGKQWQGIRMLDLATYTAGGLPLQVPDEVTDNASLLRFYQNWQPQWKPGTTRLYANASIGLFGALAVKPSGMPYEQAMTTRVLKPLKLDHTWINVPKAEEAHYAWGYRDGKAVRVSPGMLDAQAYGVKTNVQDMANWVMANMAPENVADASLKQGIALAQSRYWRIGSMYQGLGWEMLNWPVEANTVVEGSDSKVALAPLPVAEVNPPAPPVKASWVHKTGSTGGFGSYVAFIPEKQIGIVMLANTSYPNPARVEAAYHILEALQ
With B1 the “Percent Bound at 0.1 nM” value was 0.4%.
